Test results reported in PMC4767637 (Journal of molecular biology, 2016).

Target: the molecule itself
Assay: NMR

B1: Tyr-705-phosphorylated STAT3 (127-711)-His6 (domain or fragment, human, UniProt P40763 127-711, looked up)
chain: GQANHPTAAVVTEKQQMLEQHLQDVRKRVQDLEQKMKVVENLQDDFDFNYKTLKSQGDMQDLNGNNQSVTRQKMQQLEQMLTALDQMRRSIVSELAGLLSAMEYVQKTLTDEELADWKRRQQIACIGGPPNICLDRLENWITSLAESQLQTRQQIKKLEELQQKVSYKGDPIVQHRPMLEERIVELFRNLMKSAFVVERQPCMPMHPDRPLVIKTGVQFTTKVRLLVKFPELNYQLKIKVCIDKDSGDVAALRGSRKFNILGTNTKVMNMEESNNGSLSAEFKHLTLREQRCGNGGRANCDASLIVTEELHLITFETEVYHQGLKIDLETHSLPVVVISNICQMPNAWASILWYNMLTNNPKNVNFFTKPPIGTWDQVAEVLSWQFSSTTKRGLSIEQLTTLAEKLLGPGVNYSGCQITWAKFCKENMAGKGFSFWVWLDNIIDLVKKYILALWNEGYIMGFISKERERAILSTKPPGTFLLRFSESSKEGGVTFTWVEKDISGKTQIQSVEPYTKQQLNNMSFAEIIMGYKIMDATNILVSPLVYLYPDIPKEEAFGKYCRPESQEHPEADPGSAAPYLKTKFI
modifications: phosphotyrosine at 705
- dH (van't Hoff, monomer-dimer equilibrium, from I568 and I654): 61.9 ± 4.6 kJ/mol
- dH (van't Hoff, monomer-dimer equilibrium, from I653 and I711): 53.6 ± 2.09 kJ/mol
